The results in this text go back to paper PMC3257281.

Experiment [1] has as its target rabbit intestinal mucin (rabbit). In words: ELISA. A general note: In an ELISA, binding on a coated surface is turned into a signal by an enzyme label.
Experiment [2] has the same target.
For experiment [3] the target is unchanged. In words: binding to mucin-coupled Sepharose resin, Scatchard plot; rabbit mucin coupled to NHS-activated sepharose; different amounts of GbpA protein added to 400 µl resin, 2 h, room temperature; unbound protein measured after centrifugation; Kd from bound vs. bound/free.
Experiment [4] shares this target. The experiment can be described thus: binding to mucin-coupled Sepharose resin, Scatchard plot.

pKd: −log10 of the molar value.

Usually pKd stands for the negative decadic logarithm of the Kd, by convention in mol/L.

As to “GbpA(Y61A), full length GbpA with tyrosine 61 changed to alanine (from UniProt Q9KLD5 24-485) (natural protein)”, the pKd in experiment [1] is 4.83; in experiment [3] it was 4.85. The inhibition of binding of biotinylated wild type V. cholerae N16961 to mucin-coated wells pre-treated with increasing concentrations of the protein; value at saturation in experiment [2] was 83%.
In experiment [1], “GbpAD1, GbpA domain 1 (residues 24-203) (from UniProt Q9KLD5 24-203) (domain or fragment)” had a pKd of 5.06.
On the same count and under the same terms, the value for “GbpAD3, GbpA domain 3 (domain or fragment)” was 4.12.
Regarding “GbpA_(D1–3), GbpA domains 1 to 3 (residues 24-414) (from UniProt Q9KLD5 24-414) (domain or fragment)”, the pKd in experiment [1] was 4.88; in experiment [3], 4.90.
Regarding “GbpAfl, mature full-length GlcNAc binding protein A (residues 24-485) (from UniProt Q9KLD5 24-485) (natural protein)”, the values for the pKd in experiment [1] and in experiment [4] were 5.11 and 5.03, respectively. Besides, the inhibition of binding of biotinylated wild type V. cholerae N16961 to mucin-coated wells pre-treated with increasing concentrations of the protein; value at saturation in experiment [2] came out at 83%.
